The text below walks through data of patent publication US20190263934A1.

Bounds are passed on as bounds.

Assay [1] has as its target biotinylated hFcRn (human) (UniProt P55899). Kind of assay: SPR Biacore, pH 6.0. On the technique in general: Surface plasmon resonance follows binding to a sensor surface in real time, without labels.
Target sequence in this assay (P55899 24-297 limits assumed, form in doubt, chain 1 of 2): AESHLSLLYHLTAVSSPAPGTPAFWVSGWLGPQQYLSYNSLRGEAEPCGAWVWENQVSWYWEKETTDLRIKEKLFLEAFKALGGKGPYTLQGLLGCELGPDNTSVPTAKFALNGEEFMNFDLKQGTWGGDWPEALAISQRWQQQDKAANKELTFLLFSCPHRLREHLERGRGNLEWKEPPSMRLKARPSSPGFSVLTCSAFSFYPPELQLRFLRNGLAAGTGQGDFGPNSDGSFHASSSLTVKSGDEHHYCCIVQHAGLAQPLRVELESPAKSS
Target sequence in this assay (P61769 21-119 limits assumed, form in doubt, chain 2 of 2, further chain): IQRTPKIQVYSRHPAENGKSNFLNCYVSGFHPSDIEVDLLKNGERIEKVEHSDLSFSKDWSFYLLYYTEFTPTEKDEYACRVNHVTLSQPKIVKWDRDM
Assay [2] has as its target rFcRn (rat) (UniProt P13599). Nature of the assay: SPR Biacore, pH 6.0.
Target sequence in this assay (P13599 23-298 limits assumed, form in doubt, chain 1 of 2): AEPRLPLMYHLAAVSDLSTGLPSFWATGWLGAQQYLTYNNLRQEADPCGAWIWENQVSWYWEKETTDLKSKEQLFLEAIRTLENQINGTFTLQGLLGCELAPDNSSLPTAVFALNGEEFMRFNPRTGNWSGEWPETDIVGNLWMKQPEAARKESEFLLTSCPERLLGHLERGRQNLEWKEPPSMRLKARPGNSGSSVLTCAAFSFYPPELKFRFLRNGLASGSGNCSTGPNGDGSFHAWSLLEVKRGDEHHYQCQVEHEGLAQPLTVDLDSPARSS
Target sequence in this assay (P07151 21-119 limits assumed, form in doubt, chain 2 of 2, further chain): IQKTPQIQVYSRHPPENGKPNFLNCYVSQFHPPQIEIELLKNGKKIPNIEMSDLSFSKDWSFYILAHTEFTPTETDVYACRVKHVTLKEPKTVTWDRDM
The target in assay [3] is rFcRn (rat) (UniProt P13599). Kind of assay: SPR Biacore, pH 7.4.
Target sequence in this assay (P13599 23-298 limits assumed, form in doubt, chain 1 of 2): as the sequence (P13599 23-298 limits assumed, form in doubt, chain 1 of 2) above
Target sequence in this assay (P07151 21-119 limits assumed, form in doubt, chain 2 of 2, further chain): as the sequence (P07151 21-119 limits assumed, form in doubt, chain 2 of 2, further chain) above
The target of assay [4] is biotinylated hFcRn (human) (UniProt P55899). Nature of the assay: SPR Biacore, pH 6.0. This is another data set of the same source.
Target sequence in this assay (P55899 24-297 limits assumed, form in doubt, chain 1 of 2): as the sequence (P55899 24-297 limits assumed, form in doubt, chain 1 of 2) above
Target sequence in this assay (P61769 21-119 limits assumed, form in doubt, chain 2 of 2, further chain): as the sequence (P61769 21-119 limits assumed, form in doubt, chain 2 of 2, further chain) above
Assay [5] has the same target. Nature of the assay: Biacore SPR, pH 6.0, bivalent fit.
Target sequence in this assay (P55899 24-297, form in doubt, chain 1 of 2): as the sequence (P55899 24-297 limits assumed, form in doubt, chain 1 of 2) above
Target sequence in this assay (P61769 21-119, form in doubt, chain 2 of 2, further chain): as the sequence (P61769 21-119 limits assumed, form in doubt, chain 2 of 2, further chain) above
The target in assay [6] is rFcRn (rat) (UniProt P13599). Nature of the assay: Biacore SPR, pH 6.0, bivalent fit.
Target sequence in this assay (P13599 23-298, form in doubt, chain 1 of 2): as the sequence (P13599 23-298 limits assumed, form in doubt, chain 1 of 2) above
Target sequence in this assay (P07151 21-119, form in doubt, chain 2 of 2, further chain): as the sequence (P07151 21-119 limits assumed, form in doubt, chain 2 of 2, further chain) above
For assay [7], the target named is rFcRn (rat) (UniProt P13599). Kind of assay: SPR Biacore, pH 7.4, 1000 nM antibody.
Target sequence in this assay (P13599 23-298 limits assumed, form in doubt, chain 1 of 2): as the sequence (P13599 23-298 limits assumed, form in doubt, chain 1 of 2) above
Target sequence in this assay (P07151 21-119 limits assumed, form in doubt, chain 2 of 2, further chain): as the sequence (P07151 21-119 limits assumed, form in doubt, chain 2 of 2, further chain) above
For assay [8], the target named is biotinylated hFcRn (human) (UniProt P55899). Kind of assay: SPR Biacore, pH 7.4.
Target sequence in this assay (P55899 24-297 limits assumed, form in doubt, chain 1 of 2): as the sequence (P55899 24-297 limits assumed, form in doubt, chain 1 of 2) above
Target sequence in this assay (P61769 21-119 limits assumed, form in doubt, chain 2 of 2, further chain): as the sequence (P61769 21-119 limits assumed, form in doubt, chain 2 of 2, further chain) above
For assay [9] the target is unchanged. Kind of assay: SPR Biacore, pH 7.4, 1000 nM antibody.
Target sequence in this assay (P55899 24-297 limits assumed, form in doubt, chain 1 of 2): as the sequence (P55899 24-297 limits assumed, form in doubt, chain 1 of 2) above
Target sequence in this assay (P61769 21-119 limits assumed, form in doubt, chain 2 of 2, further chain): as the sequence (P61769 21-119 limits assumed, form in doubt, chain 2 of 2, further chain) above

As for mAb1 T256D (antibody), the Kd in [1] is 6700 nM; with rFcRn (rat) [2], 86 nM; in assay [4], over 3000 nM; in [5], 6700 nM; in the assay with rFcRn (rat) [6], 86 nM. Besides, the Steady State RU worked out at 23.2 RU with rFcRn (rat) [3] and 30.4 RU with rFcRn (rat) [7].
By koff is commonly meant the rate constant with which the complex falls apart. For orientation: kon means the second-order rate constant of association. A high value points to faster complex formation. On to mAb1 T307W/N434Y (antibody), for which the Kd is 21.5 nM in assay [1] and 0.62 nM in the assay with rFcRn (rat) [2]. The values for the koff (in assay [1]; in the assay with rFcRn (rat) [2]) were 0.0317 s⁻¹ and 0.0003 s⁻¹, respectively. Also, the on-rate (kon) in [1] worked out at 1.48e+06 M⁻¹ s⁻¹; with rFcRn (rat) [2], 480000 M⁻¹ s⁻¹. In addition, the Steady State RU in assay [8] stood at 37.2 RU; with rFcRn (rat) [3], 69.6 RU.
Regarding mAb1 E380C (antibody), the Kd with rFcRn (rat) [2] and with rFcRn (rat) [6] was 6310 nM throughout. The Steady State RU in [9] is 5.7 RU; with rFcRn (rat) [7], 27.7 RU.
With mAb1 K288N (antibody), the Kd in the assay with rFcRn (rat) [2] and with rFcRn (rat) [6] was 190 nM in each case. The Steady State RU with rFcRn (rat) [7] was found to be 20.4 RU.
In the case of mAb1 M252Y/N434F (antibody), in [1], the Kd stood at 18 nM, the koff was found to be 0.023 s⁻¹ and the kon came to 1.27e+06 M⁻¹ s⁻¹. In addition, in the assay with rFcRn (rat) [2], the Kd came out at 0.29 nM, the koff amounted to 0.00012 s⁻¹ and the kon is 403000 M⁻¹ s⁻¹. Moreover, the Steady State RU in [8] turned out to be 43.8 RU. In addition, the Steady State RU with rFcRn (rat) [3] is 79.3 RU.
mAb1 T256E (antibody): the Kd was 113 nM in the assay with rFcRn (rat) [2], over 3000 nM in assay [4] and 113 nM in the assay with rFcRn (rat) [6]. For the same substance, the Steady State RU in assay [8] turned out to be 4.5 RU; with rFcRn (rat) [3], 17 RU; in [9], 4.8 RU; in the assay with rFcRn (rat) [7], 23 RU.
In [1], mAb1 M252Y/T256E (antibody) showed a Kd of 128 nM, a koff of 0.0757 s⁻¹ and a kon of 592000 M⁻¹ s⁻¹. In the assay with rFcRn (rat) [2], this substance gave a Kd of 8.43 nM, a koff of 0.00273 s⁻¹ and a kon of 324000 M⁻¹ s⁻¹. For the same substance, the Steady State RU in [8] was determined as 9.8 RU. For the same substance, the Steady State RU in the assay with rFcRn (rat) [3] was 55.1 RU.
On to mAb1 Y436H (antibody), for which the Kd in the assay with rFcRn (rat) [2] and with rFcRn (rat) [6] was 131 nM in each case. Further, the figures for the Steady State RU (in assay [9]; with rFcRn (rat) [7]) were 3.6 RU and 16.3 RU, respectively.
For mAb1 M252Y/T307W (antibody), in assay [1], the Kd stood at 118 nM, the koff is 0.057 s⁻¹ and the kon was 483000 M⁻¹ s⁻¹. In the assay with rFcRn (rat) [2], this substance yielded a Kd of 5.21 nM, a koff of 0.00109 s⁻¹ and an on-rate constant (kon) of 208000 M⁻¹ s⁻¹. Besides, the Steady State RU in assay [8] is 15.9 RU. This substance registered a Steady State RU with rFcRn (rat) [3] of 66.1 RU.
Consider mAb1 T256E/N434F (antibody), for which, in assay [1], the Kd was 78.2 nM, the koff was determined as 0.0419 s⁻¹ and the on-rate (kon) was 536000 M⁻¹ s⁻¹. In the assay with rFcRn (rat) [2], this substance yielded a Kd of 7.53 nM, a koff of 0.00081 s⁻¹ and a kon of 108000 M⁻¹ s⁻¹. Moreover, the Steady State RU in assay [8] worked out at 23.3 RU. The substance further yielded a Steady State RU in the assay with rFcRn (rat) [3] of 59 RU.
In [1], mAb1 T307Q/N434F (antibody) came in with a Kd of 42.9 nM, a koff of 0.0246 s⁻¹ and a kon of 574000 M⁻¹ s⁻¹. In the assay with rFcRn (rat) [2], the Kd was determined as 3.89 nM, the koff was 0.0004 s⁻¹ and the kon stood at 104000 M⁻¹ s⁻¹. The same substance came in with a Steady State RU in [8] of 34.2 RU. This substance also came in with a Steady State RU in the assay with rFcRn (rat) [3] of 62.5 RU.
As for mAb1 T307F (antibody), the Kd with rFcRn (rat) [2] and in the assay with rFcRn (rat) [6] was 131 nM each time. The Steady State RU in assay [9] was 4.9 RU; with rFcRn (rat) [7], 21.9 RU.
On to mAb1 M252Y/N434Y (antibody), for which, in [1], the Kd was determined as 8.32 nM, the koff came to 0.0171 s⁻¹ and the kon amounted to 2.06e+06 M⁻¹ s⁻¹. Besides, in the assay with rFcRn (rat) [2], the Kd was 0.26 nM, the koff was 0.00014 s⁻¹ and the kon came out at 540000 M⁻¹ s⁻¹. Further, the Steady State RU in [8] amounted to 54.1 RU. In the assay with rFcRn (rat) [3], this substance gave a Steady State RU of 67.9 RU.
Take mAb1 M252Y/T307Q (antibody): the Kd came to 278 nM in assay [1] and 4.11 nM with rFcRn (rat) [2]. Also, the off-rate constant (koff) in assay [1] was 0.096 s⁻¹; with rFcRn (rat) [2], 0.00105 s⁻¹. Further, the kon in assay [1] turned out to be 345000 M⁻¹ s⁻¹; with rFcRn (rat) [2] it was 255000 M⁻¹ s⁻¹. Moreover, the Steady State RU in assay [8] is 10.6 RU; with rFcRn (rat) [3], 49.2 RU.
Turning to mAb1 T256D/N434Y (antibody), in assay [1], the Kd worked out at 15.6 nM, the koff came out at 0.0285 s⁻¹ and the kon came to 1.83e+06 M⁻¹ s⁻¹. In the assay with rFcRn (rat) [2], this substance displayed a Kd of 0.6 nM, a koff of 0.00025 s⁻¹ and a kon of 413000 M⁻¹ s⁻¹. Moreover, in assay [8], the Steady State RU is 37.1 RU. Further, the Steady State RU with rFcRn (rat) [3] came out at 71.6 RU.
mAb1 K288D (antibody): the Kd with rFcRn (rat) [2] and in the assay with rFcRn (rat) [6] was 149 nM in each case. Also, the results for the Steady State RU (in [9]; in the assay with rFcRn (rat) [7]) were 3.8 RU and 21.9 RU, respectively.
